Data published in the DeepSol protein solubility set.

Test: soluble on expression in E. coli; label from the status in PepcDB or PDB records
With “GMSSKQHCVKLNDGHLIPALGFGTYKPKEVPKSKSLEAACLALDVGYRHVDTAYAYQVEEEIGQAIQSKIKAGVVKREDLFVTTKLWCTCFRPELVKPALEKSLKKLQLDYVDLYIMHYPVPMKSGDNDFPVNEQGKSLLDTVDFCDTWERLEECKDAGLVKSIGVSNFNHRQLERILNKPGLKYKPVCNQVECHLYLNQRKLLDYCESKDIVLVAYGALGTQRYKEWVDQNSPVLLNDPVLCDVAKKNKRSPALIALRYLIQRGIVPLAQSFKENEMRENLQVFGFQLSPEDMKTLDGLNKNFRYLPAEFLVDHPEYPFVEEY” the “soluble on expression in E. coli” value was “soluble”. For “GMSVNGIEVAKPFIAATVNVLSTMAGIQPQPGKPYVKKNNVAKGDVSAVIGITGHKNGSISVTFTKSCAIALVKGMLGDDIQDILQDTKDAVGEVTNMISGQARAGLAEMGMVFQGSTPSVIMGDGHTISHVTKSPIMAIPFLTNHGEFTVEFCFE”, the “soluble on expression in E. coli” value was “soluble”. In the case of “GMTMPIFNISDDVDLVPAMPAEGRDGGSYRRQIWQDDVENGTIVAVWMAEPGIYNYAGRDLEETFVVVEGEALYSQADADPVKIGPGSIVSIAKGVPSRLEILSSFRKLATVIPKP”, the “soluble on expression in E. coli” value was “soluble”. With “GMTRTMSFHKNCELCTTAGGEILWQDALCRVVHVENQDYPGFCRVILNRHVKEMSDLRPAERDHLMLVVFAVEEAVREVMRPDKINLASLGNMTPHVHWHVIPRFKRDRHFPNSVWGETKRESLPQALDQGSTTALKKAISVRLDQGEPVFMGM” the “soluble on expression in E. coli” value was “soluble”. In the case of “GMTSREDEIRDFLATHGYADWNRTPLAGDASSRRYQRLRSPTGAKAVLMDWSPEEGGDTQPFVDLAQYLRNLDISAPEIYAEEHARGLLLIEDLGDALFTEVINNDPAQEMPLYRAAVDLLIHLHDAQTPELARLDPETLSEMTRLAFSEYRYAILGDAAEDNRKRFEHRFAQILSAQLEGDMVFVHRDFHAQNLLWLPEREGLARVGVIDFQDAKLGHRAYDLVSLLQDARRDVPAQVEAQMIDHYIQATGVDESHFRSAYAVIAVQRNMRILGIFARLSQRFGKRHYIEFVPRVWAHFERGLAHPALASAAEEILNALPAPAPEVLERLRA”, the “soluble on expression in E. coli” value was “soluble”. In the case of “GMVEPMTPRFKYTKASQENIQQLGNILEQCFVMSFGDSEIYVKGIGLENFRVIYREQKVAGGLAILPMGQWWGGQRVPMAGIAAVGIAPEYRGDGAAIALIQHTLQEISEQDIPISVLYPATQRLYRKAGYEQAGSSCVWEIPTDSIQIQHASLPLEPVVLKNNPIFHELYQQQAQLTHGYLDRHPAIWQGLNRTLDTETLYSYLIGDKDKPQGYIIFTQERTRDGSILRIRDWVTLSNPAVQSFWTFIANHRSQIDKVTWKSSVIDALTLLLPEQSATIRSQDRWMLRIVNVCKALEARGYPLGVEAELHLEVQDDLLATNQGKFILSVANGKSEVTKGGKGELQLDIKGLASLYTSLFTPRQLQLTGKLQATETALLKATQIFAGESPWMIDFF”, the “soluble on expression in E. coli” value was “soluble”. In the case of “GMVRYPLEPVLSIKKDRVDRAEKVVKEKRRLLELEQEKLRERESERDKVKNHYMQKIRQLREQLDDGTTSDAILKMKAYIKVVAIQLSEEEEKVNKQKENVLAASKELERAEVELTKRRKEEEKTRLHKEEWMKEALKEEARQEEKEQDEMGQLLHQLHKQKQRESGEN”, the “soluble on expression in E. coli” value was “soluble”. With “GMVYVDPDRFDELVAEALDGIPEEFARAMRNVAVFVEDEPDDPELLGLYVGIPLTERTTAYGGVLPDRIIIYRNTICALCETESEVIDEVRKTVVHEIAHHFGIDDERLHELGY” the “soluble on expression in E. coli” value was “soluble”. In the case of “GNGFDVENYKDKEIVIVAGGTGVSPVRGVVEYFAKNSKEAKSVTLIAGFKTPKDILFSEDFKEWKNNINIILTVDSAEGDSNFKEGLVTKYIPELKLQNVKEASAIVVGPPAMMRFSTQGLLDVGFKEENMWISQERKMCCGIGKCGHCKIDDVY”, the “soluble on expression in E. coli” value was “not soluble”. In the case of “GPGHMEGLRCVVLPEDLCHKFLQLAESNTVRGIETCGILCGKLTHNEFTITHVIVPKQSAGPDYCDMENVEELFNVQDQHDLLTLGWIHTHPTQTAFLSSVDLHTHCSYQLMLPEAIAIVCSPKHKDTGIFRLTNAGMLEVSACKKKGFHPHTKEPRLFSICKHVLVKDIKIIVLDLR”, the “soluble on expression in E. coli” value was “soluble”. With “GPGSDQLKQSAFLVRNDEKVAALIVLLKRVLHVGEAAANSAQALIFSESKFHVEFLQMILTHYSISTSAVHGQMDQEARRLAVRSFAKRETSVMVVTDVAARGLDLPLLDNVVNFSFPFNPKLFVHRVGRVARAGRSGTAYSIMTFEDFPYYVDLMQFIGRPLQSAPVPGDLLFTPDDGCYGRLPEEDIQLELDFLKRLH” the “soluble on expression in E. coli” value was “not soluble”. In the case of “GPGSMACLSRIDANLLQYYEKPEPNNTVDLYVSNNSNNNGLKEGDKSISTPVPQPYGSEYSNCLLLSNSEYICYHFSSRSTLLTFYPLSDAYHGKTINIHLPNASMNQRYTLTIQEVEQQLLVNVILKDGSFLTLQLPLSFLFSSANTLNGEWFHLQNPYDFTVRVPHFLFYVSPQFSVVFLEDGGLLGLKKVDGVHYEPLLFNDNSYLKSLTRFFSRSSKSDYDSVISCKLFHERYLIVLTQNCHLKIWDLTSFTLIQDYDMVSQSDSDPSHFRKVEAVGEYLSLYNNTLVTLLPLENGLFQMGTLLVDSSGILTYTFQNNIPTNLSASAIWSIVDLVLTRPLELNVEASYLNLIVLWKSGTASKLQILNVNDESFKNYEWIESVNKSLVDLQSEHDLDIVTKTGDVERGFCNLKSRYGTQIFERAQQILSENKIIMAHNEDEEYLANLETILRDVKTAFNEASSITLYGDEIILVNCFQPYNHSLYKLNTTVENWFYNMHSETDGSELFKYLRTLNGFASTLSNDVLRSISKKFLDIITGELPDSMTTVEKFTDIFKNCLENQFEITNLKILFDELNSFDIPVVLNDLINNQMKPGIFWKKDFISAIKFDGFTSIISLESLHQLLSIHYRITLQVLLTFVLFDLDTEIFGQHISTLLDLHYKQFLLLNLYRQDKCLLAEVLLKDSSEFSFGVKFFNYGQLIAYIDSLNSNVYNASITENSFFMTFFRSYIIENTSHKNIRFFLENVECPFYLRHNEVQE”, the “soluble on expression in E. coli” value was “soluble”. With “GPGSMADYLREKVLESLGISFRETQNCRRWITEVTNMIWEAQPAELRTALCWTTPLGLVVRQPYKVRKEITLFTPHGCSRIPGDAFSAASRKQLTAIAPNLIHSLDATHLAMTAIEMQNLGLSMMAVHDSYWTYACDLPVLSKVLRQQFVTLYSKYDPLWELKEQWEEAYFMDLRRHGTLLPDPPKRGDLDLSVVLDSPYFFS” the “soluble on expression in E. coli” value was “not soluble”. In the case of “GPGSMAGWASLGRSFRTPESRSEELVKKAIEGDALRIGSGDTVKHEEAVSPFAAKLFSNITGSQRYVLIAVRHTQPATVDESRKAAIFHHDIRQAGIAMGHDEILAVGHARLEPGEQFGWREPLMLFVQIILIDKTGFHPSTCSLDAMFRLVVEWAGSRIKRMQPPHCISHDGYFLGRSKVR”, the “soluble on expression in E. coli” value was “not soluble”. In the case of “GPGSMDAVRAMDYTDIYLRPRKKESVSPQEPLRSAQVDSAAESRVEWMLKGAFSVQQLLDRVEELSARVCMFDEKMVNLTKLVKLAQGIQEEKEADIRFQQQELLSRLKRLEQACARLEDMETFKQFIISKVQETLEDAHQAFLSDLAKIRADGEEQAARTKQRIENTVSDVRRDVEERIASLWGEAEQKDLSRQEAQDTLREKLRLVESSLRDLEMSVGRDYSRVPPLQEKIDGITQSLSSLEQKVDKTAGTVVTLGNEAKQARALLMEEIETTRQWVTRNLQRVKQHVEVISSDVEQLHNGRADLSARISRISCQADMECKKLRSQLSQKALVADALDNLVQKEFYKVEDVALRHQSLRTEVGAVKDV”, the “soluble on expression in E. coli” value was “not soluble”. For “GPGSMDTECLRARHSECIDLASVQLRRQLMDSGIPFTEAEIAALPARFVELLISRLEMFRQREVETRAAVDKCRRETEVEEMRFEQLREATERVQGEKRIISSKISAAVSEYMREDKLEKEKQRERHNELQEVFRQVEKKEAEHRREIIEMERLRKMLKKVTK”, the “soluble on expression in E. coli” value was “not soluble”. For “GPGSMEDYKAKGNDAFKAKRYQEAIDWYTKAIELDPNGEASGALYSNRAGSWQNLNNFEKAAADSEQCIRLRPDWLKGYFRLGVAMESMVKYDEAQKAFQKALQLSPGNEEGWTSCTPLILKFASAYEKTKSRSARPLKKPSNLATPS”, the “soluble on expression in E. coli” value was “soluble”. For “GPGSMEFVAEAHGYLITGLALDSQGDLFAICSCSGELLRLNKEENTLVSIMATEASPYNIAIEPNSGSVFITDRSENAILKLEDAATVRAEQELREGKDQESQAAYTTVQYLNAFEGRSFLGPTAIAFSPSGELFFTDAGAEGDSSFSDPVGAVYRTTMNHEHLVPICTRGLIRPSAIAVAPDNSVYVCEQGTNRVLRFVQRSTFYVGNVFAQLQGGMGPRAIAVSPRDGSVFVAQYDISAVEAPTEEGESEKGNEDAGEGEGGDDGKVQNQSALESAGEGGIITVLGRDGDVRGIVRTMRPCITAIALDASGETLYVMEGDEANGSSKLYKLQVLPLDDQQCGGQAE”, the “soluble on expression in E. coli” value was “not soluble”. With “GPGSMEQWSACEAATRRVLAVDRTERYPSARRLVRVFISQGRLQEAQQAVSPHRDAIDWAAEVAAVKACTSYTNFYAAHQYSKALESLEVVLSLCPCGTLEAAKARLLSLENAAQAVSYAAQRSRAYATSTELHFCLWSLTFHSVTSVVGLDTLLADMQATPLGRSELRFRHLHTHIARCKEALAKLQVLKTARQWREAATFVTQVLAEPFLPDGLKGVMYYERARALAQQASWYATLDDTHRALSYTEAVSLRANMLLLVARCEEALGRLRDAVYHTEESLGLASNAAAVEQLRSLKARWAHVQASTDAPRTTPRTTSKETPKPNTNANAFSPVSRASLDVHYKTLSLPRSAGAAEVKKSYRALAIKWHPDRWCSASTEAIRTAESTFKTIQHAYEEIMKSAS” the “soluble on expression in E. coli” value was “not soluble”. In the case of “GPGSMERVTYARTGALRSTYAGLPVTKERLVTAAPAKWFPLLTTVPQRVLKSISDSDGVDGSLLGFLPIAFVFEELRKHLSDFTQHAAFLRAVLQWYHQTAGDTLESEIATDKVEIFQPYLPAYRLRVLKEGETVATFNDISRRAVTLMGKDRGINDIPLDHPSCSAQHAALEVNFVHRNSEPFQQRLHTLMQEEYRNINWSSPDEVGKLCAHALQLMREFGGDEDMWLMELQVVDLGSTNGTNLNGELLRPLERATVIEGDVLTFGYSTRKYLIVRA”, the “soluble on expression in E. coli” value was “soluble”. In the case of “GPGSMGTDKVMSEKLVLEKTKVKSLSDVQRLDMWGEGLTDISLVAKLPRLEVLALAANNVSSLKALQGCELLQELYLRKNKVANLREVTALRVLPTLSVLWLRDNPCAQHPYYREFVLHCCPGLRQLDGVEVTADERKAAAKRLTTKTLDEILGRSACADAASSPRPKKSSGAGSSPAKATDVTPSSTPGGVSDSTATIEERNASSRSVLFTTVAAQRAMLLSIVSLLSELTVESLELLQREVQERVEKQKEKLTKYVQENSQ”, the “soluble on expression in E. coli” value was “soluble”. In the case of “GPGSMHAAPYEEVALSDMLLEDGKLRYPCPCGDLFELSLSEFAKGSVVAECPTCSLTVRIICNEEERHAFLLRCNALNGVRDVVIA”, the “soluble on expression in E. coli” value was “not soluble”. For “GPGSMHGIRRWRVRLVNRACQSLSGSLVFSACRHCATVPTEDDVRKAYKILGVHTSATLTDVKKRYGDLAKEHHPDVSNSSAVSSTNRMTDINNAYNTVKQFHQAGRRLFEATRAPNASGASDSSSSSYYSKQDSAYQPWYEDMDPLMYELMWEEMRRQNEEDSFARNMHAEAFYRPNDRWRPPRGNASARPRQSSGSSDGRQSHAGKKSPSSTTWPEEQVKAMVNMYQDGKSFEFIANALGKESAAAVLEEFNRWSSDNQPQRRKGAKPHHARRHRYHGGHGPFYHTESPDEVPFELYEMMEEEPYYDGSSEESGDPFGYYSGDGEAYDVPYTHATPFYGVHQMNGGPAPYGHFEGGVGREYNSSRKMSHRPMRNHRGGPPNKNRRYGGTSSNHKGSGGGFQSGNGKSHGSGGGKT”, the “soluble on expression in E. coli” value was “not soluble”. In the case of “GPGSMHRIVKVNVGGRYFQTRLSTLLRFPDTSFARMFEGLASTSALPPTLSPPPQPTESEDVFVDANPDVFEKVLGFLRTNRIQLPLNDECLRAELVHHLNSWDLMPHAFPASAADGAVEGEEAHRIELPDVCVVQLCDHMQHDQGVKRHAMTITYGADGFQLRKLTQMIRRDLNQQLSSTYWQCYQTNERAAFFATTKVANGAADILTTSITQQVVQHTERLGYHLATSYVTL”, the “soluble on expression in E. coli” value was “not soluble”.
